The values that follow come from patent US7846710B2, “Cell comprising an intein for the production of a cyclic peptide” (The Penn State Research Foundation, priority 1998, dated 2010).

The assay concerns the target T1, recombinant Streptomyces antibioticus tyrosinase (Streptomyces antibioticus, UniProt P07524).
T1 construct: expressed in transfected cells; host or cells: E. coli XL1-Blue co-transformed with pDIM-NY (pDIMN-Y) and pARCP-p or pARCP2-6H
T1 sequence (P07524 whole entry, looked up): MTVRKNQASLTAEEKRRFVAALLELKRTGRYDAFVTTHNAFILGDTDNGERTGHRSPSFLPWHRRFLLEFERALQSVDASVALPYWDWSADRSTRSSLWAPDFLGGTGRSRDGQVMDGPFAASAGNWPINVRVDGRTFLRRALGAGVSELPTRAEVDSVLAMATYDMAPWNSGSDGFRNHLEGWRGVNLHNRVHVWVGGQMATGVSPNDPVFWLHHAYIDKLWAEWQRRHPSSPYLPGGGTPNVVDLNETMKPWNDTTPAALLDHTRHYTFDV
In words: In vivo assay on FeCuY plates to detect tyrosinase inhibition (pigment formation) by co-expressed cyclic peptide. The conditions noted are these: co-expression in tyrosinase expressing XL1-Blue cells on FeCuY plates, L-(+)arabinose (0.5%) induction. Format: cell-based, Escherichia coli XL1-Blue. The text has this:
FIG. 7 is a photograph of FeCuY plates used in an in vivo assay to detect tyrosinase inhibition by pseudostellarin F.
The tyrosinase gene (including ORF 438) from Streptomyces antibioticus (Berman et al, Gene 37:101, 1985) was amplified with Vent-polymerase from pIJ702 (ATCC no. 35287) with primers introducing 5′
Ndel and 3′ EcoRI restriction sites. The PCR product was digested with Ndel and EcoRI and ligated into similarly digested pDIMN2 (Ostermeier et al, supra) to generate pDIMN-Y. Transformed ligation mixtures were grown at ambient temperature for 5 days, and colonies that expressed tyrosinase were identified by pigment formation on FeCuY plates [LB agar plates containing ampicillin (200 ug/ml), FeCI3.6H2O (0.2 mM), CuS04.5H2O (0.2 mM), L-tyrosine (0.3 mg/ml, Y) and isopropyl-B-D-galactoside (1 mM)] (Della-Cioppa, G. et al., Biotechnology 8:634, 1990).
Pseudostellarin F production was readily detected in vivo through inhibition of recombinant Streptomyces antibioticus tyrosinase (FIG. 7). In the experiment shown in FIG. 7, XLI-Blue cells were co-transformed with pDIM-NY and either pARCP2-6H (a & b) or pARCP-p (c & d). The cells were plated on FeCuY plates with chloramphenicol (50 ug/ml), either without (a & c) or with (b & d) L-(+)arabinose (0.5%).

As for “cyclo-[CHMHHHHHHGAGAA] (backbone cyclized) [cyclic peptide from pARCP2-6H, unrelated cyclic peptide encoded by plasmid pARCP2-6H, used as negative control]”, the “tyrosinase inhibition (pigment formation)” value is on record as “failed to inhibit tyrosinase”.
“cyclo-[Ser-Gly-Gly-Tyr-Leu-Pro-Pro-Leu] (SGGYLPPL; backbone cyclized; printed: Ser-Gly-Gly-Tyr-Leu-Pro-Pro-Leu) [pseudostellarin F, backbone cyclic peptide produced in E. coli from pARCP-p by intein-mediated cyclization]”: the “tyrosinase inhibition (pigment formation)” value was “dramatically reduced pigment formation”.
